assay: soluble on expression in E. coli; label from the status in PepcDB or PDB records

Sequence | soluble on expression in E. coli
MSLDTSAPQKYRRILLKVSGEVLMGDTPYGIDTNTVQSVAEDVAEIVKSGVELCLVIGGGNIFRGMAGAAKGMERSSADYMGMLATVMNALAMQDALERIGVETRVQSAIPMATVCEPYIRRRAQRHLEKGRVVIFAAGTGNPFFTTDTAAALRAAEMQCDALFKGTSVDGVYTADPKKDPTAQRYDRLSYMDVLAKDLRVMDASAVALMRDSNIPIVVFSIKGRGNLLTVLRGEGTHTVVAEDEGHHHHHH | soluble
MSLEAGAGAPLARYAAWRRAGDFIFLSGIIPVNPLTGTIVNGFQDVPEPVRELLGATGEFSTDAKQGPILAQSWYVLESIRRTVASAGGQMSDVIKLVQYFRNLDHFPYYSRVRKLFYPDQPPVSTVVQVSEMLPDATVLIEVEATVWLPPSFNSEAEGHHHHHH | soluble
MSLEALLSEDVKIIASALKAAIDKDRKSTSKREAETGIRYYNHENDIMNNRIFYVDDEGVLREDKYASNVRIPHGFFPEIVDQKTQYLLSNPVEYETENEELKEYLAEYYNSEFQVVLQELVEGSSQKGFEYVYARTNAEDRLCFQVADSLNVFGVYNEYNELQRICRHYITEIEKDGETVDIHHAEVWTDQNVYFFVAEDNKDYELDEAEPINPRPHVLAVDSDNESLLQRSYGQIPFYRLSNNKQETTDLKSIKALIDDYDLMNCFLSNNLQDFAEAIYVVSGFQGDDLSKLRQNVKSKKVVGTGSDGGLDVKTVTIPTEGRKTKMEIDKENIYKFGMAFDSTQVGDGNITNIVIKARYTLLNMKANKTEARLRALLEWMNKLVIDDINRRYTKAFDPTEVSFTFTREVMVNETDIVNNEKTEAETRKIILESILQVAPRLDDDNVLRLICEQFDLDWEDVKEALEEAEYTQGLTDNTDEEETAVTPNVPTQQMAEGATGSTESQLPGEGHHHHHH | not soluble
MSLEELSLYTLRHVLERSAVLYADQPSLSQLGCEPLTFRDLHDHAEHLALWLRDNGVGTGDRVALLAENSPNWGIAYFAITGMGAIAVPILPEFHADAVQHILRHSEAKAVFVSERLFPKLEEGEGIADSLMCISMETFQSIAQGTTRDMLRELKSKGLREFRKLRDKAKRLANMADAAPAEDDVAAIIYTSGTTGHSKGVVLTHRNIVWDADAVKSIVKLGPGDRMLSILPLSHTYECTLGLVLPVLNGAHVHYMDKPPTARALLPAMAQVRPTAMLSVPLVIEKIFKTALLPKLTGSWLKQRLYAIPFVRRKLHALAGRKLLESFGGALRIFCIGGAGIAPDVERFLREANFPYAIGYGLTETAPLVAGSGPASTRLTSTGFTLDGVDIAIDAPDPATGEGEIIVRGPNVMREYYKAPQITASAFTPEGWFRTGDLGKFDADGYLYIKGRLKNVIIGPSGENIYPEEVEAIIHQSPFVLESLVFQQDGRLVARIHLDAARLDESFGDLPALKQREKIDALLETLRNEVNTKVSTFARLAKVIEQTEPFEKTPTHKIKRYLYVEQEGHHHHHH | soluble
MSLEEWIKADSLEKADEYHKRYNYAVTNPVRRKILRMLDKGRSEEEIMQTLSLSKKQLDYHLKVLEAGFCIERVGERWVVTDAGKIVDKIRG | soluble
MSLEKESEWKGPFYFILGADPQFGLIKAWSTGDCDNGGDEWEQEIRLTEQAVQAINELNPKPKFFVLCGDLIHAMPGKPWRTEQTEDLKRVLRAVDRAIPLVLVSGNHDIGNTPTAETVEEFCRTWGDDYFSFWVGGVLFLVLNSQFYENPSKCPSLKQAQDQWLDEQLSIARQRHCQHAIVFQHIPLFLESIDEDDDYYFNLSKSTRKELADKFIHAGVRVVFSGHYHRNAGGTYQNLDMVVSSAIGCQLGRDPHGLRVVVVTAEKIVHRYYSLDELSEKGIEDDLMDLEGHHHHHH | not soluble
MSLEKKVLATVGNTEITSDYIDEIIARYPAQQQAMLASDEGKRQVLEQAIAFELMSEFAKETGLDKTEEFKDQLNKFAKELLAQMVMKKTLSSVTVTDDEAKAFYEEHKENFVELETVTAKHILVASEEEAKKVEEEIASGSITFEDAANKYSSCPSKEQGGNLGSFSKGMMVPEFEEAAFNLELGVVSAPVKTQFGYHLIKVEDKTEAKTKAFEDVKEQVVNMLIQERQQKKYLELIKELREKYGVKLAEGHHHHHH | soluble
MSLEKLNLICVDDQREVLSAVLQDLEPLNKWLNIEDCESADEVLELMDELDADGEMIALIISDHVMPGKTGVELLTEISKDSRFVRTRKVLLTGQATHTDTINAINSAGIDRYFEKPWQANQLIECVRNLVTQYIFDEGHHHHHH | not soluble
MSLEKSYWEQAHLQLPLKYTWKISRNASTEKINVIVFLCIDGRTYPGEAAPNVRYGESVELIDLQFKHFQTVWKDSLLQDEHAYNDVLDGLKLCQSLRFALESAYVHARCDKDPAFFERYTGIKMHTSPLATSYTLPIMDPGQIQEFIQTHDLTRFDTLKIKTGKEESKELIKTASRYFDKMIRVDANEAWTDPDLLIKELEELKRIPLEFIEQPFESAQKDAYKYFKKYSKIPVIADESITFAPDLKEIKELFHGVNMKLMKAGGYREGANILLKSKELGLKTMVGCMVETTLGIRSGMWISGHSDYIDLDGSFVIDNEPFKLVSENLGRLVIKQVNFFIEKWQKEGHHHHHH | soluble
MSLELNFSQTLGNHCLTINETLPANGITAIFGVSGAGKTSLINAISGLTRPQKGRIVLNGRVLNDAEKGICLTPEKRRVGYVFQDARLFPHYKVRGNLRYGMSKSMVDQFDKLVALLGIEPLLDRLPGSLSGGEKQRVAIGRALLTAPELLLLDEPLASLDIPRKRELLPYLQRLTREINIPMLYVSHSLDEILHLADRVMVLENGQVKAFGALEEVWGSSVMNPWLPKEQQSSILKVTVLEHHPHYAMTALALGDQHLWVNKLGEPLQAALRIRIQASDVSLVLQPPQQTSIRNVLRAKVVNSYDDNGQVEVELEVGGKTLWARISPWARDELAIKPGLWLYAQIKSVSITEGHHHHHH | soluble
MSLENLQTNFSLVQGSTKKLNGMGDDGSPPAKKMITDIHVNGKTINKVPTVKKEHLDDYGEAPVETDGEHVKRTCTSVPETLHLNPSLKHTLAQFHLSSQSSLGGPAAFSARHSQESMSPTVFLPLPSPQVLPGPLLIPSDSSTELTQTVLEGESISCFQVGGEKRLCLPQVLNSVLREFTLQQINTVCDELYIYCSRCTSDQLHILKVLGILPFNAPSCGLITLTDAQRLCNALLRPRTFPQNGSVLPAKSSLAQLKETGSAFEVEHECLGKCQGLFAPQFYVQPDAPCIQCLECCGMFAPQTFVMHSHRSPDKRTCHWGFESAKWHCYLHVNQKYLGTPEEKKLKIILEEMKEKFSMREGHHHHHH | not soluble
MSLEQMLWDAACSIRGEKDAAKFKDYLLPLLFLKRLSDVFDDEIERLAEEYGDRATALEIAESDHSLLRFYLPPEARWAVISGRESFDWPLDDRGRPTAPRDIGEHLTKAVRAVVKQNPTLSGVIDVVDFAAERNGERDINPAKLRGVVETFSDPRYRLGLADVQPDFLGRAYEYLLRKFAEGSGQSAGEFFTPTEVGFLMAHILRPKPGETCHDYACGSAGLLIKLQLVARELDPTSRVPLKLSGQELQAESYAVAQMNAIIHDMEVELARGDTMINPKFREASGKIRGHDIVVANPMWNQPFAADLFANDPFDRFRTAGGITSGKGDWAWLQHTLACMNDHGRAAVVLDTGAVTRGSGSKNEDKERTIRKWFVEQDLIDGVILLPENLFYNTTAAGVIVVLSRRKPAARKGKIVLLNASRRFKKGRPKNYLPEEDIRPLAAMYLKGEPVEGELAVITTEQAREADYNLSPSRWVGQNGDAEIGSIPNLLRALEQLNEEDASLTSGLLQLLRPLAKTGDAEGHHHHHH | soluble
MSLERIRDLTSVQGVRQNSLIGYGLVVGLDGTGDQTTQTPFTTQTLNNMLSQLGITVPTGTNMQLKNVAAVMVTASLPPFGRQGQTIDVVVSSMGNAKSLRGGTLLMTPLKGVDSQVYALAQGNILVGGAGASAGGSSVQVNQLNGGRITNGAVIERELPSQFGVGNTLNLQLNDEDFSMAQQIADTINRVRGYGSATALDARTIQVRVPSGNSSQVRFLADIQNMQVNVTPQDAKVVINSRTGSVVMNREVTLDSCAIAQGNLSVTVNRQANVSQPDTPFGGGQTVVTPQTQIDLRQSGGSLQSVRSSASLNNVVRALNALGATPMDLMSILQSMQSAGCLRAKLEIIEGHHHHHH | soluble
MSLERKRVLVKFSGEALAGENGFGIENSILKFIASEIKELIKNQIEVGIVIGGGNIIRGVSAAKGGLIKRTSGDHMGMLATVINAIAIQEALESSGLEVRVQSAIQMEAFCETYIMRRAQRHLEKGRVVVFAAGTGNPYFTTDTTAILRAVEIDADMVIKATKVNGVYDKDPKQFDDAVFLNTLSYDEAMQDNIKVMDDTAIALAKDNKLPIVVCNMFEEGNLLKIIQGDTSLCSTVKNNEGHHHHHH | soluble
MSLERNYEESALFEHQFWLKVLTDHAQFLLDALAPKEKEDIKKATYFVETFTNLLNKVRNVNLMAFSKEAEQAAKEIRAFKLNIIQKQLEGKITIHFTPTFINHMVNEVEEYIAVLEFLKKGEVPPVFHELHYHLVWLTDAAGHAGSISGGLDLVEKRLKEKSEEFTKHFEQFYLKAVEMTGYLRTELHHFPALKKFTKDVSLELKLFSHFLHEVEELELSNEVLSVLSARMADHMAREECYYLLKLAQSSGLEMPKCNPLEGHHHHHH | soluble
MSLESVGDVLKRQPSRFHYQDLVQKIMKDPDVAAFVQQESLNQDELNRSISKFNQYITERDKFLRGDTDYIAKGYKPILVMNHGYADVSYEETPELIAAEKEAAIKKRLNLINFPSSLKNVSFLDVYRDDVQRLTVLKRMIEFVNDYPNNLKGLYLYGDFGVGKSFMVAALAHDLSEKRGVSSTLLHYPSFVIDVKNAIGDGNVKTLVDEIKLSEVLILDDIGAEQSTAWVRDEILQVILQYRMQENLPTFFTSNFNFEDLEKHFAKGKNGNDETWEARRVMERIRYLAEETRLEGVNRREGHHHHHH | soluble
MSLETAGQIIGGETAAVLIRQKAGEPIELGDLLVAEGEGYTILQVKDLRYSSQIPQGMRELASGFNLEGYGREVELLEPELRNYIIAEARPILHVRDGQPMIPKRLPRFFREVRRIREGDLDFLERPGNPVFLGNVRSGSKVLDTPVYVDAVDAITHHILIPATTGRGKSNLVKVMLWSLAEMDRVGILVLDPHDEYYGRNEAGLGRHPSDNVVYYSPDAPVGGNTLTINLRSLRPEHFEGIIPFTQAQEQAIARYYNEYGDGWILKIVEGEELPGVQPVTLNVLRRIFDVILGVHLDDGKIKSRGGVFRERGGESTIKDIAASLEDGKNRCGGHLKAHGRGEGHHHHHH | not soluble
MSLETSDAPHSSLVGNSVFVTHPDLKRLFQMAVSKSVREILIPAVEKAANMAVQSTVNIVLKDFATEVDEQKLKTAAINMVQYLAQNVAHSISVPLLKDTIRNTTQSLTPNLINMTNSPIAELNTAIDDNIAIAVSPIEKAAVERAIQEVNEKLVQAVAVRRYHLERRSDQPFVAQNINRFSLNLPDPLGLKPTGVTREQFSLYEQFPASMPSDSSRSPLETILAQEGHHHHHH | soluble
MSLETWYDFDLPLDRTDPITIIHFNDVYNIESRCDGTGGVSRFVTALQSFQHKHPLILFSGDVLNPSVMSTYTRGRHMVPFLNLLKIHTACFGNHDFDFGIDELEYAVGSCSFPWLISNVFEKTGQTGLPLANGMKYRLFEWQGIRVGIIGLVEKEWLDTLACIDKDDVVYVDFVEAANCLCRILRQKECELIIALTHMRAPNDERLAKEAEDIDLILGGHDHDYYGLQRIGNIPVVKSGTDFRDFTVITIHPGQGSRLDASSLPTPPTQNKFGSTTFVSEEAARREAAVTAEMFKGPLLPTTVEGGEEVMPFFLGGSIVEWSRVRVDPERFEKNKHVELLVKKYEQNLKKQMKQILVDAACDLETRFSVIRTSESNVGNWLCDLMRRECRADIAILNSGTIRSDCLFPPGPFRFGDLAAMLPMTDTLCVIAVHGNVLLQALENAVSQLPKTEGRFLQVAGIRFAFNSSKPVGQRVVRDSVKVAQDACGRVHSGAATPVGEGKKSESDYLPLDENRVYSVATKTYLAQGRDGFHMLSKCPVLVEDELLPPLPTMVRSALSMAEMANGIKRPHSRITFKRLTEGHHHHHH | not soluble

Source: the DeepSol protein solubility set
